The values that follow come from patent US20250042994A1 (HAINAN SIMCERE ZAIMING PHARMACEUTICAL, published 2025).

Sequences and labels used below:
B1: F4.152.7 (antibody, human IgG1, V domains shown)
VH: QVQLQQPGAELVKPGASVKLSCKASGYTFTSYWMHWVKQRPGQGLEWIGEIDPSDSYTNYNQKFKGKATLTADKSSSTAYMQLSGLTSEDSAVYHCARGGDYDGYYVMDYWGQGTSVTVSS
VL: EIVLTQSPTTMAASPGEKITITCSASSSISSNYLHWYQQKPGFSPKLLIYRTSNLASGVPARFSGSGSGTSYSLTIGTMEADDVATYYCQQGSYIPRIFTFGSGTKLEIK
notes: human-murine chimeric antibody, human IgG1
B2: F4.41.1 (antibody, human IgG1, V domains shown)
VH: QVQLQQSGAELVRPGTSVKVSCKASGYAFTNYLIEWVKQRPGQGLEWIGVINPGSGDTLYNEKFKGKATLTADKSSTTAYMQLSGLTSDVSAIYFCARSPPITTIVADYFDYWGQGTTLTVSS
VL: DIQMTQTTSSLSASLGDRVTISCRASQDISNYLNWYQQKPDGTVKLLIYYTSRLHSGVPSRFSGSGSGADYSLTISNLEQEDIATYFCQQGKTLPYTFGGGTKLEIK
notes: as for B1
B3: F4.82.11 (antibody, human IgG1, V domains shown)
VH: QVTLKESGPGILQASQTLSLTCSFSGFSLSTFGIGVGWVRQPSGKGLEWLAHIWWNDNKFFNTTLKNRLTLSKDPSNNQVFLKIASVDTADTATYYCARSRSALITTGLYAMDYWGQGTSVTVSS
VL: B2 VL with T8P, A25S, L33V, L46V, Y49N, A69T, T85S, K92F
notes: as for B1
B4: F4.191.1 (antibody, human IgG1, V domains shown)
VH: QVQLQQPGAELVRPGASVKLSCKASGYTFTSYWINWVKQRPGQGLEWIGNIHPSDSYTNYNQKFKDKATLTVDKSSSTAYMQFSSPTSEDSAVYYCTREDYYYGSNYDAMDYWGQGTSVTVSS
VL: DIVMTQSHKFMSTSVGDRVNITCKASQDVGSSVAWYQQKPGQSPKLLIYWASTRHAGVPDRFTGSGSGADFTLTISNVQSEDLADYFCQQYSTYPLTFGAGTKLELK
notes: as for B1
B5: F4.49.11 (antibody, human IgG1, V domains shown)
VH: DVQLRASGPGLVKPSQSLSLTCSVTGYSITSGYYWNWIRQFPGNKLEWMGCISYDGTNNYNPSLKNRISFTRDTSKNQFFLNLNSVTTEDSATYYCARRVYYRYDGVVDYWGQGTSVTVSS
VL: ENVLTQSPAIMSASPGEKVTMTCSASSSVSYIHWYQQKSSTAPKLWIYDTSKLASGVPGRFSGSRSRNSYSLTISSMEAEDVATYYCFQGSGYPLTFGSGTKLEIK
notes: as for B1
B6: F4.48.12 (antibody, human IgG1, V domains shown)
VH: QMQLKESGPGLVAPSQSLSITCTVSGFSLTDYGVSWIRQPPGKGLEWLGVIWGSGSTFYNSALTSRLSISKDNSKSQVFLKMNSLQTADTAMYFCAKHHYYGGSFAMDYWGQGTSVTVSS
VL: DIQMTQASSSLSASLGDRVTISCKTSQDISNYLNWYQQKPDGTFKLLIHYTSRLHSGVPSRFSGSGSGSDYSLTISNLEREDIATYFCQQGNSLPYTFGGGTKLEMK
notes: as for B1
B7: F4.107.12 (antibody, human IgG1, V domains shown)
VH: EVQLQQSGPELVKPGASVKMSCKASGYTFTSYVLHWVRQKPGQGLEWIGYFNPYNDGTEYNEKFKGKAILTSDKSSSTAYMELNSLTSEDSAVYYCVGGTYYYGSSYPFAYWGQGTLVTVST
VL: DVVMTQISLSLPVSLGDQASISCRSSQSLIHSNGNTYLQWYLQKPGQSPKLLIYKVSNRLSGVPDRFSGSGSGTDFTLKISRVEAEDLGVYFCSQSTHVPYTFGGGTKLEIK
notes: as for B1
B8: F4.78.1 (antibody, human IgG1, V domains shown)
VH: QVQIQQSGAELARPGASVKLSCKASGYTFTNYWMQWIKQRPGQGLEWIGAIYPGDGDTRYTQKFKGKATLTADKSSSTAYMQLSSLASEDSAVYYCAREEVWSPYGMDYWGQGTSVTVSS
VL: QIVLTQSPAIMSASPGEKVTITCSASSSVSYMGWFQQKPGTSPKLWIYSTSNLASGVPARFSGSGSGTSYSLTISRMEAEDAATYYCQQRSIYPLTFGAGTKLELK
notes: as for B1
B9: F4.96.6 (antibody, human IgG1, V domains shown)
VH: EIQLQQSGPELVKPGASVKVSCKASGYAFSAYNIYWVKQSHGKSLEWIGYIDPYNSGTTYNQKFRGKATLTVDKSSNTAYMHLSSLTSEDSAVYYCTRDGDAMDYWGQGTSVTVSS
VL: EILLTQSPAIIAASPGEKVTITCSASSGVIYMNWYQQKPGSSPKIWIYDVSTLASGVPARFSGSGSGTSFSFTINSMEAEDVATYYCQQRSSYPYTFGGGTKLEIK
notes: as for B1

Changes are numbered by the printed parent chain.

For the first test, the target named is T1, monkey CD19 on HEK293T-monkey CD19 cells (monkey).
T1 construct: whole, on cells
In words: FACS on HEK293T-monkey CD19 cells. Summed up: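 Antibody binding was read as MFI by flow cytometry and EC50 was taken from curve fitting. Before that, cells at 2×10⁶ cells/ml in PBS with 2% (w/w) BSA were exposed to samples for 2 h on ice and washed. Parental HEK293T cells were tested the same way.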
In the case of B1, the “Maximum mean fluorescence intensity” value is 58.

In the case of B2, the “Maximum mean fluorescence intensity” value was 545.

In the case of B3, a half-maximal response (EC50) required 1.18 nM and the “Maximum mean fluorescence intensity” value came out at 66600.

For B4, the EC50 is 1.14 nM and the “Maximum mean fluorescence intensity” value is 59600.

Take B5: the EC50 came to 3.08 nM and the “Maximum mean fluorescence intensity” value is 73500.

Turning to B6, a half-maximal effect (EC50) was put at 184 nM and the “Maximum mean fluorescence intensity” value came out at 14300.

Consider B7, for which it took 1.24 nM to reach a half-maximal effect (EC50) and the “Maximum mean fluorescence intensity” value was 69500.

Take B8: a half-maximal effect (EC50) was put at 0.73 nM and the “Maximum mean fluorescence intensity” value was found to be 57000.

In the case of B9, the “Maximum mean fluorescence intensity” value stood at 73.

For the next test, the target named is T2, human CD19 on Raji cells (human, UniProt P15391 20-556).
T2 construct: whole, on cells
T2 sequence (looked up): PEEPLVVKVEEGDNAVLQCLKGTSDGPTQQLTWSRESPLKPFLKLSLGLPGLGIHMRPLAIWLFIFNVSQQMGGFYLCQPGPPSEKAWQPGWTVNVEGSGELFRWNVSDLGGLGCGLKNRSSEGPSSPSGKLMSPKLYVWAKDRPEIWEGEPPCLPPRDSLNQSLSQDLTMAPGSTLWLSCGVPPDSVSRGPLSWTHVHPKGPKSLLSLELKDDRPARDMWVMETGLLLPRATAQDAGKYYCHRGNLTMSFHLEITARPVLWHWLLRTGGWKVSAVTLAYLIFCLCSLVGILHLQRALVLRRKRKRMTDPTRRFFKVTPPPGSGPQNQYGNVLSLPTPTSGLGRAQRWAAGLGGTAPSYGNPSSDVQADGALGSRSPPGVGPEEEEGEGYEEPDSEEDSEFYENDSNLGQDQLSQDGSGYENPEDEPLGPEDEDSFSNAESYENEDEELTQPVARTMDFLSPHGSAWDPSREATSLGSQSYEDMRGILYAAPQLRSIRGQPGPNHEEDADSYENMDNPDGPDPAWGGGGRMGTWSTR
In words: FACS on Raji cells.
Take B1: a half-maximal response (EC50) required 0.76 nM and the “Maximum mean fluorescence intensity” value amounted to 26000.

For B2, the EC50 stood at 1.02 nM and the “Maximum mean fluorescence intensity” value is 23400.

On to B3, for which the half-maximal effective concentration (EC50) is 0.85 nM and the “Maximum mean fluorescence intensity” value is 16600.

Consider B4, for which the response was half-maximal at 1.89 nM (EC50) and the “Maximum mean fluorescence intensity” value was determined as 32300.

With B5, the midpoint of the response, the EC50, lay at 6.21 nM and the “Maximum mean fluorescence intensity” value was 20300.

In the case of B6, the EC50 stood at 0.55 nM and the “Maximum mean fluorescence intensity” value is 29300.

For B7, the midpoint of the response, the EC50, lay at 0.6 nM and the “Maximum mean fluorescence intensity” value was 26700.

Take B8: the midpoint of the response, the EC50, lay at 1.52 nM and the “Maximum mean fluorescence intensity” value was 36900.

Consider B9, for which the EC50 is 0.74 nM and the “Maximum mean fluorescence intensity” value was found to be 25700.

In a further test the target is T3, cynomolgus monkey CD19 on peripheral blood B cells (cynomolgus monkey (Macaca fascicularis), UniProt A0A2K5W8L9 20-557).
T3 construct: whole, on cells; also called cynomolgus monkey B cells
T3 sequence: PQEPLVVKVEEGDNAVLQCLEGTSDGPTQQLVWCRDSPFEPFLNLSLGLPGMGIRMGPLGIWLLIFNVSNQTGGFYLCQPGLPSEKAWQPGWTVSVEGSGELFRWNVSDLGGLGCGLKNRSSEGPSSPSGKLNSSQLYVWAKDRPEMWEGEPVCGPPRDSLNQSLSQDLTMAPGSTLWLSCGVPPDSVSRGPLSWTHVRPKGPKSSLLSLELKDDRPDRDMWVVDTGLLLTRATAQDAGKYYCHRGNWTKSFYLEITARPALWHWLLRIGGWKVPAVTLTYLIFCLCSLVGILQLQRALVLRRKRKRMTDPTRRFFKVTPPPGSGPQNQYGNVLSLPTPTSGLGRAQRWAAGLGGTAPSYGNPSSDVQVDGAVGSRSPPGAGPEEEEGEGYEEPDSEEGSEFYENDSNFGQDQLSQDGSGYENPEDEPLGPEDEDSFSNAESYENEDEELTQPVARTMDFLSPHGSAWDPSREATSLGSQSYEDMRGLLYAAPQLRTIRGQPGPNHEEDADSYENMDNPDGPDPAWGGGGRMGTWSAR
In words: FACS, cynomolgus PBMC, CD20+ B cells.
Take B1: the “Proportion of chimeric antibody positive cells to B cells (%) at 1 nM” value (“Proportion … (%) at 1 nM” below) is 2%, the “Proportion of chimeric antibody positive cells to B cells (%) at 10 nM” value (from here on “Proportion … (%) at 10 nM”) came out at 2% and the “Proportion of chimeric antibody positive cells to B cells (%) at 100 nM” value (“Proportion … (%) at 100 nM” below) is 3%.

In the case of B2, the “Proportion … (%) at 1 nM” value was determined as 1%, the “Proportion … (%) at 10 nM” value is 2% and the “Proportion … (%) at 100 nM” value amounted to 2%.

Regarding B3, the “Proportion … (%) at 1 nM” value was 97%, the “Proportion … (%) at 10 nM” value is 98% and the “Proportion … (%) at 100 nM” value came out at 99%.

As to B4, the “Proportion … (%) at 1 nM” value came to 3%, the “Proportion … (%) at 10 nM” value turned out to be 15% and the “Proportion … (%) at 100 nM” value was found to be 50%.

Take B5: the “Proportion … (%) at 1 nM” value amounted to 67%, the “Proportion … (%) at 10 nM” value came to 96% and the “Proportion … (%) at 100 nM” value was 98%.

With B6, the “Proportion … (%) at 1 nM” value came out at 1%, the “Proportion … (%) at 10 nM” value stood at 8% and the “Proportion … (%) at 100 nM” value was 22%.

For the molecule B7, the “Proportion … (%) at 1 nM” value was determined as 20%, the “Proportion … (%) at 10 nM” value is 35% and the “Proportion … (%) at 100 nM” value was determined as 67%.

For the molecule B8, the “Proportion … (%) at 1 nM” value stood at 21%, the “Proportion … (%) at 10 nM” value was 29% and the “Proportion … (%) at 100 nM” value was found to be 74%.

On to B9, for which the “Proportion … (%) at 1 nM” value came to 1%, the “Proportion … (%) at 10 nM” value was determined as 2% and the “Proportion … (%) at 100 nM” value turned out to be 1%.

Another test concerns the target T4, human CD19 on CHO-K1-human CD19 cells (human, UniProt P15391 20-556).
T4 construct: whole, on cells; also called CHO-K1-human CD19-2C8
T4 sequence (looked up): T2 sequence (looked up)
The experiment in a line: FACS on CHO-K1-human CD19 cells.
As for B1, the EC50 worked out at 0.78 nM and the “Maximum mean fluorescence intensity” value was 58900.

Take B2: a half-maximal response (EC50) required 1.49 nM and the “Maximum mean fluorescence intensity” value worked out at 48600.

In the case of B3, the EC50 was determined as 0.32 nM and the “Maximum mean fluorescence intensity” value is 26000.

Take B4: a half-maximal effect (EC50) was put at 0.34 nM and the “Maximum mean fluorescence intensity” value amounted to 26500.

For B5, a half-maximal response (EC50) required 3.1 nM and the “Maximum mean fluorescence intensity” value was 44200.

On to B6, for which the concentration giving a half-maximal response (EC50) is 0.48 nM and the “Maximum mean fluorescence intensity” value was determined as 52700.

In the case of B7, the EC50 amounted to 0.77 nM and the “Maximum mean fluorescence intensity” value was 59900.

In the case of B8, the EC50 is 0.51 nM and the “Maximum mean fluorescence intensity” value turned out to be 44300.

With B9, the EC50 turned out to be 1.16 nM and the “Maximum mean fluorescence intensity” value came to 52000.
